Measurements as given in patent US20200079833A1 (AstraZeneca / MedImmune, published 2020).
Starred links: 1 amine or outer side, 2 acyl side, 3 side chain; linkers in the order of their positions; H or OH if unused. Non-standard residues stand in square brackets, D forms with d. Groups on a side chain read outwards from the residue. Primed or numbered codes have the meaning given here. No end group written: not given here. *: point of attachment. γGlu = O=C(O)[C@H](CCC(=O)[*:2])N[*:1]; Stearoyl = CCCCCCCCCCCCCCCCCC(=O)*; αMeF = C[C@](N)(Cc1ccccc1)C(=O)O; αMeK = C[C@](N)(CCCCN)C(=O)O; αMeS = C[C@](N)(CO)C(=O)O; PEG2′ = not defined here; Aib = CC(C)(N)C(=O)O

Experiments:
Assay in all cases: cell-based or functional assay
GLP-1 receptor = GLP-1 receptor (human, UniProt P43220 24-463)
[1] = target: T1, glucose-dependent insulinotropic peptide (gastric inhibitory polypeptide) receptor (human, UniProt P48546 22-466)
T1 sequence (looked up): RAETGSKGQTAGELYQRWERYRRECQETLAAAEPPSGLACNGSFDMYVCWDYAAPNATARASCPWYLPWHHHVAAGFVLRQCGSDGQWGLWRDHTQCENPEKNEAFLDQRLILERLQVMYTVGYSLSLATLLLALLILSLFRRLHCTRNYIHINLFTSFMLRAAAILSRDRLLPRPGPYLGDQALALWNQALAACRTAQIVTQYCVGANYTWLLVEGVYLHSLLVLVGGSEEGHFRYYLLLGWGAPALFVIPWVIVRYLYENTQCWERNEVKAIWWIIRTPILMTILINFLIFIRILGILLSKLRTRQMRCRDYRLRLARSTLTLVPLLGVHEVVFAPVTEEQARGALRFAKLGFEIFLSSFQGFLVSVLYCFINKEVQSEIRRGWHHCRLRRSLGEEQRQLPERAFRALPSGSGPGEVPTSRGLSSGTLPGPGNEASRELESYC

glucagon receptor = glucagon receptor (human, UniProt P47871 26-477)
glucagon receptor, sequence (P47871 26-477): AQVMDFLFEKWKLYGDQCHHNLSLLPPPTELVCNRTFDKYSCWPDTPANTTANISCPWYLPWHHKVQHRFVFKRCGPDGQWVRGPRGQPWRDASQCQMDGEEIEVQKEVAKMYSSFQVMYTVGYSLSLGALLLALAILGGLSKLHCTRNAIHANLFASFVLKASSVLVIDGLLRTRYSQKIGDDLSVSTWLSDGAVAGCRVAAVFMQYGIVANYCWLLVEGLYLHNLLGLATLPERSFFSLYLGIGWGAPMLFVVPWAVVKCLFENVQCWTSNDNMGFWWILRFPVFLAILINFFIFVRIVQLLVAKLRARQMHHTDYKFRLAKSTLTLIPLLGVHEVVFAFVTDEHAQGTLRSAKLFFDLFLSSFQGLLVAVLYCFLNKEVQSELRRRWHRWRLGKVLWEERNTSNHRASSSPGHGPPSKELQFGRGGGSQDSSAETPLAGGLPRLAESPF

Primary assay EC50 (cAMP), Mean pM GLP-1R (GLP-1 receptor)	Primary assay EC50 (cAMP), n1 (GLP-1 receptor)	Primary assay EC50 (cAMP), n2 (GLP-1 receptor)	Primary assay EC50 (cAMP), n1 [1]	Primary assay EC50 (cAMP), n2 [1]	Primary assay EC50 (cAMP), n1 (glucagon receptor)	Primary assay EC50 (cAMP), n2 (glucagon receptor)	Binder
6.1 pM	0.0039 nM	0.0082 nM	26 nM	26 nM	26 nM	26 nM	H[Aib]EGS[αMeF]TSDV[αMeS]S[αMeF]LEGEAAK([PEG2′-PEG2′-γGlu-Stearoyl])EFIA[αMeF]VV[αMeK]GG-NH2 [SEQ ID NO 48]
3560 pM	3.8 nM	3.3 nM	26 nM	26 nM	26 nM	26 nM	H[Aib]EGSFTSDV[αMeS]S[αMeF]LEGEAAK([PEG2′-PEG2′-γGlu-Stearoyl])E[αMeF]IA[αMeF]VV[αMeK]GG-NH2 [SEQ ID NO 45]
2 pM	0.0015 nM	0.0025 nM	26 nM	26 nM	26 nM	26 nM	H[Aib]EGS[αMeF]TSDVSS[αMeF]LEGEAAK([PEG2′-PEG2′-PEG2′-Stearoyl])E[αMeF]IA[αMeF]VV[αMeK]GG-NH2 [SEQ ID NO 52]
43.3 pM	0.037 nM	0.05 nM	25 nM	25 nM	25 nM	25 nM	H[Aib]EGS[αMeF]TSDV[αMeS]SYLEGEAAK([PEG2′-PEG2′-γGlu-Stearoyl])E[αMeF]IA[αMeF]VV[αMeK]GG-NH2 [SEQ ID NO 47]
0.6 pM	0.00045 nM	0.00071 nM	31 nM	31 nM	31 nM	31 nM	H[Aib]EGS[αMeF]TSDV[αMeS]S[αMeF]LEGEAA[αMeK]E[αMeF]IA[αMeF]VVEGG-NH2 (N-terminus assumed; SMILES CC[C@H](C)[C@H](NC(=O)[C@](C)(Cc1ccccc1)NC(=O)[C@H](CCC(=O)O)NC(=O)[C@](C)(CCCCN)NC(=O)[C@H](C)NC(=O)[C@H](C)NC(=O)[C@H](CCC(=O)O)NC(=O)CNC(=O)[C@H](CCC(=O)O)NC(=O)[C@H](CC(C)C)NC(=O)[C@](C)(Cc1ccccc1)NC(=O)[C@H](CO)NC(=O)[C@](C)(CO)NC(=O)[C@@H](NC(=O)[C@H](CC(=O)O)NC(=O)[C@H](CO)NC(=O)[C@@H](NC(=O)[C@](C)(Cc1ccccc1)NC(=O)[C@H](CO)NC(=O)CNC(=O)[C@H](CCC(=O)O)NC(=O)C(C)(C)NC(=O)[C@@H](N)Cc1c[nH]cn1)[C@@H](C)O)C(C)C)C(=O)N[C@@H](C)C(=O)N[C@@](C)(Cc1ccccc1)C(=O)N[C@H](C(=O)N[C@H](C(=O)N[C@@H](CCC(=O)O)C(=O)NCC(=O)NCC(N)=O)C(C)C)C(C)C) [SEQ ID NO 43]

Continued, binder first:

Binder	Primary assay EC50 (cAMP), Mean pM GLP-1R (GLP-1 receptor)	Primary assay EC50 (cAMP), n1 (GLP-1 receptor)	Primary assay EC50 (cAMP), n2 (GLP-1 receptor)	Primary assay EC50 (cAMP), n1 [1]	Primary assay EC50 (cAMP), n2 [1]	Primary assay EC50 (cAMP), n1 (glucagon receptor)	Primary assay EC50 (cAMP), n2 (glucagon receptor)
H[Aib]EGS[αMeF]TSDV[αMeS]S[αMeF]LEGEAAK([PEG2′-PEG2′-γGlu-Stearoyl])E[αMeF]IA[αMeF]VVKGG-NH2 [SEQ ID NO 50]	216 pM	0.17 nM	0.26 nM	26 nM	26 nM	26 nM	26 nM
H[Aib]EGS[αMeF]TSEVSS[αMeF]LEGEAA[αMeK]E[αMeF]IA[αMeF]VV[αMeK]GG-NH2 (N-terminus assumed; SMILES CC[C@H](C)[C@H](NC(=O)[C@](C)(Cc1ccccc1)NC(=O)[C@H](CCC(=O)O)NC(=O)[C@](C)(CCCCN)NC(=O)[C@H](C)NC(=O)[C@H](C)NC(=O)[C@H](CCC(=O)O)NC(=O)CNC(=O)[C@H](CCC(=O)O)NC(=O)[C@H](CC(C)C)NC(=O)[C@](C)(Cc1ccccc1)NC(=O)[C@H](CO)NC(=O)[C@H](CO)NC(=O)[C@@H](NC(=O)[C@H](CCC(=O)O)NC(=O)[C@H](CO)NC(=O)[C@@H](NC(=O)[C@](C)(Cc1ccccc1)NC(=O)[C@H](CO)NC(=O)CNC(=O)[C@H](CCC(=O)O)NC(=O)C(C)(C)NC(=O)[C@@H](N)Cc1c[nH]cn1)[C@@H](C)O)C(C)C)C(=O)N[C@@H](C)C(=O)N[C@@](C)(Cc1ccccc1)C(=O)N[C@H](C(=O)N[C@H](C(=O)N[C@@](C)(CCCCN)C(=O)NCC(=O)NCC(N)=O)C(C)C)C(C)C) [SEQ ID NO 7]	389 pM	0.35 nM	0.43 nM	100 nM	100 nM	100 nM	100 nM
H[Aib]EGS[αMeF]TSDV[αMeS]S[αMeF]LEGEAAK([PEG2′-PEG2′-γGlu-Stearoyl])E[αMeF]IAWVV[αMeK]GG-NH2 [SEQ ID NO 49]	124 pM	0.096 nM	0.15 nM	25 nM	25 nM	25 nM	25 nM
H[Aib]EGSFTSDV[αMeS]S[αMeF]LEGEAAK([PEG2′-PEG2′-PEG2′-Stearoyl])E[αMeF]IA[αMeF]VV[αMeK]GG-NH2 [SEQ ID NO 51]	2.1 pM	0.0017 nM	0.0024 nM	26 nM	26 nM	26 nM	26 nM
H[Aib]EGS[αMeF]TSDVSS[αMeF]LEGEAAK([PEG2′-PEG2′-γGlu-Stearoyl])E[αMeF]IA[αMeF]VV[αMeK]GG-NH2 [SEQ ID NO 46]	1560 pM	0.92 nM	2.2 nM	26 nM	26 nM	26 nM	26 nM
H[Aib]EGS[αMeF]TSDV[αMeS]S[αMeF]LEGEAAEE[αMeF]IA[αMeF]VV[αMeK]GG-NH2 (N-terminus assumed; SMILES CC[C@H](C)[C@H](NC(=O)[C@](C)(Cc1ccccc1)NC(=O)[C@H](CCC(=O)O)NC(=O)[C@H](CCC(=O)O)NC(=O)[C@H](C)NC(=O)[C@H](C)NC(=O)[C@H](CCC(=O)O)NC(=O)CNC(=O)[C@H](CCC(=O)O)NC(=O)[C@H](CC(C)C)NC(=O)[C@](C)(Cc1ccccc1)NC(=O)[C@H](CO)NC(=O)[C@](C)(CO)NC(=O)[C@@H](NC(=O)[C@H](CC(=O)O)NC(=O)[C@H](CO)NC(=O)[C@@H](NC(=O)[C@](C)(Cc1ccccc1)NC(=O)[C@H](CO)NC(=O)CNC(=O)[C@H](CCC(=O)O)NC(=O)C(C)(C)NC(=O)[C@@H](N)Cc1c[nH]cn1)[C@@H](C)O)C(C)C)C(=O)N[C@@H](C)C(=O)N[C@@](C)(Cc1ccccc1)C(=O)N[C@H](C(=O)N[C@H](C(=O)N[C@@](C)(CCCCN)C(=O)NCC(=O)NCC(N)=O)C(C)C)C(C)C) [SEQ ID NO 42]	8.7 pM	0.0069 nM	0.011 nM	31 nM	31 nM	31 nM	31 nM
H[Aib]EGS[αMeF]TSDV[αMeS]S[αMeF]LEGEAAEE[αMeF]IA[αMeF]VVEGG-NH2 (N-terminus assumed; SMILES CC[C@H](C)[C@H](NC(=O)[C@](C)(Cc1ccccc1)NC(=O)[C@H](CCC(=O)O)NC(=O)[C@H](CCC(=O)O)NC(=O)[C@H](C)NC(=O)[C@H](C)NC(=O)[C@H](CCC(=O)O)NC(=O)CNC(=O)[C@H](CCC(=O)O)NC(=O)[C@H](CC(C)C)NC(=O)[C@](C)(Cc1ccccc1)NC(=O)[C@H](CO)NC(=O)[C@](C)(CO)NC(=O)[C@@H](NC(=O)[C@H](CC(=O)O)NC(=O)[C@H](CO)NC(=O)[C@@H](NC(=O)[C@](C)(Cc1ccccc1)NC(=O)[C@H](CO)NC(=O)CNC(=O)[C@H](CCC(=O)O)NC(=O)C(C)(C)NC(=O)[C@@H](N)Cc1c[nH]cn1)[C@@H](C)O)C(C)C)C(=O)N[C@@H](C)C(=O)N[C@@](C)(Cc1ccccc1)C(=O)N[C@H](C(=O)N[C@H](C(=O)N[C@@H](CCC(=O)O)C(=O)NCC(=O)NCC(N)=O)C(C)C)C(C)C) [SEQ ID NO 44]	6.7 pM	0.0065 nM	0.0069 nM	31 nM	31 nM	31 nM	31 nM
